Results published in publication PMC10042821 (2023).

B1: eukaryotic translation factor 5A-1 (eIF5A-1), residues 15-151 [human] / deoxyhypusine synthase, wild type, His-tagged [human] (parent complex)
chain 1: not shown
chain 2: MEGSLEREAPAGALAAVLKHSSTLPPESTQVRGYDFNRGVNYRALLEAFGTTGFQATNFGRAVQQVNAMIEKKLEPLSQDEDQHADLTQSRRPLTSCTIFLGYTSNLISSGIRETIRYLVQHNMVDVLVTTAGGVEEDLIKCLAPTYLGEFSLRGKELRENGINRIGNLLVPNENYCKFEDWLMPILDQMVMEQNTEGVKWTPSKMIARLGKEINNPESVYYWAQKNHIPVFSPALTDGSLGDMIFFHSYKNPGLVLDIVEDLRLINTQAIFAKCTGMIILGGGVVKHHIANANLMRNGADYAVYINTAQEFDGSDSGARPDEAVSWGKIRVDAQPVKVYADASLVFPLLVAETFAQKMDAFMHEKNED

Variants of: B1
Test: MST; read off a plot

Variant	EC50 [nM]
chain 2 I271A	~50
chain 2 F272A	~400

Now from value to variant:

EC50 [nM]	Variant
~12000	chain 2 M244A
~2000	chain 2 S240A
~7000	chain 2 Q83A
~45000	chain 2 Y250A
~13000	chain 2 N173A
~300	chain 2 L295A
~700	chain 2 Y176A

Variants of: B1
Test: MST; read off a plot
Remark: another data set of the same source

EC50 [nM]	Variant
~130	chain 2 K329A
~600	chain 2 W327A
~45	chain 2 E137A
~500	chain 2 D243A
~50	chain 2 H288A

Variants of: B1
Test: MST; highest eIF5A concentration of the titration, est. 6e-5 M; read off a plot

response [fraction bound]	Variant
~0.33	chain 2 F247A
